Data set [1] addresses T1, Secondary alcohol dehydrogenase from Rhodococcus ruber, SEQ ID NO: 12 (Uniprot Q8KLT9) (Rhodococcus ruber, UniProt Q8KLT9).
T1 sequence (Q8KLT9 1-346): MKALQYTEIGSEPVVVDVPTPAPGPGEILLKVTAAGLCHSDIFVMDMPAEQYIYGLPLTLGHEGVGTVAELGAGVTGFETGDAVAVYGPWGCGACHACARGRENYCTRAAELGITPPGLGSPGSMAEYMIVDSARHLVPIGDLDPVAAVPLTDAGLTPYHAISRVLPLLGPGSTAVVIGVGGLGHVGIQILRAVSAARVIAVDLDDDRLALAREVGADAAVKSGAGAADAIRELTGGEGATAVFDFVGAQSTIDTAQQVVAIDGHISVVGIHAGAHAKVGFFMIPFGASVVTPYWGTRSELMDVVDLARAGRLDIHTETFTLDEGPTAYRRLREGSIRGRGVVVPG
Description: Kinetic parameters of the reduction of 3-buten-2-one to 3-buten-2-ol. The data set is classed as biochemical. Conditions: 0-40 mM 3-buten-2-one, 40 mM NADPH, pH 7.5, 37° C. Here is the method:
(§1) The assays were incubated for various time periods (0, 20, 40, 60 120 and 240 min) with shaking at 37° C. […] The reaction products were then extracted with an equal volume of ethyl acetate. 150 μl of the upper ethyl acetate phase was transferred into a clean vial for HPLC analysis. Commercial 3-buten-2-ol (Sigma) was used as reference. […] The mobile phase consisted of 98:2 (v/v) H2O/acetonitrile containing 8.4 mM sulfuric acid. Retention time of 3-buten-2-ol and 3-buten-2-one under these conditions was 3.9 and 5.4 min, respectively.
(§2) The studied enzymatic reaction was carried out under the following conditions at 37° C.:
1 mg/ml alcohol dehydrogenase from R. ruber.
(§3) Reaction volume was 200 μl.
(§4) The assays were incubated for 0, 10, 20, 40, 60 and 120 min with shaking at 37° C. The formation of 3-buten-2-ol was quantified according to the protocol described in Example 8.

The target of data set [2] is 3-hydroxypropionyl-CoA dehydratase from Sulfolobus tokodaii, SEQ ID NO: 3 (Uniprot F9VNG3) (Sulfurisphaera tokodaii, UniProt F9VNG3). Kind of data set: Kinetic parameters of the dehydration of 4-hydroxy-2-butanone to 3-buten-2-one. Format: biochemical. Conditions: 0-300 mM 4-hydroxy-2-butanone, 20 mM MgCl2, pH 7.5, 37° C. How it is done: Each assay was started with the addition of a specific enzyme at a final concentration of 4 mg/ml. Control assays were performed in which either no enzyme was added, or no substrate was added. Test tubes were incubated for 23 hours with shaking at 37° C. Reaction products were extracted with an equal volume of ethyl acetate and then analyzed by HPLC. Commercial 3-buten-2-one (Sigma) was used as reference. […] The mobile phase consisted of 98:2 (v/v) H2O/Acetonitrile containing 8.4 mM sulfuric acid. Retention time of 3-buten-2-one under these conditions was 5.4 min.
Kinetic parameters of the reaction were determined for purified recombinant 3-hydroxypropionyl-CoA dehydratase from Sulfolobus tokodaii under the following conditions:
4 mg/ml 3-Hydroxypropionyl-CoA dehydratase S. tokodaii
Test tubes were incubated for 0, 20, 60, 120 and 180 min with shaking at 37° C. The formation of 3-buten-2-one was quantified using commercial 3-buten-2-one according to the procedure described in Example 4.

Data set [3] addresses linalool dehydratase-isomerase from Castellaniella defragrans (formerly Alcaligenes defragrans), SEQ ID NO: 19 (Castellaniella defragrans, UniProt E1XUJ2). Kind of data set: 1,3-butadiene production from 3-buten-2-ol (GC/FID). The data set is classed as biochemical. Conditions: 0-80 mM 3-buten-2-ol, cell lysate with recombinant enzyme, 2 mM DTT, pH 7.5, 37° C, 1-22 hours. An excerpt: The sequence of linalool dehydratase-isomerase inferred from the genome of Castellaniella defragrans (formerly Alcaligenes defragrans) was generated by oligonucleotide concatenation to fit the codon usage of E. coli. A stretch of 6 histidine codons was inserted after the methionine initiation codon to provide an affinity tag for purification. The gene thus synthesized was cloned in a pET25b(+) expression vector (the vector was constructed by GeneArt AG). Competent E. coli BL21(DE3) cells (Novagen) were transformed with this vector according to the heat shock procedure. As negative control, E. coli BL21(DE3) strain was transformed with empty vector. The transformed cells were grown with shaking (160 rpm) on ZYM-5052 auto-induction medium (Studier F W, Prot. Exp. Pur. 41 (2005), 207-234) for 6 hours at 37° C. and protein expression was continued at 18° C. overnight (approximately 12 hours). The cells were collected by centrifugation at 4° C., 10,000 rpm for 20 min and the pellets were frozen at −80° C.
The pellets from 100 ml of culture cells were thawed on ice and resuspended in 4 ml of 50 mM Tris-HCl pH 7.5. […] Protein concentration was determined using the Bradford method (Biorad). […]
0.25 ml of cell lysate containing recombinant linalool dehydratase-isomerase was added to 0.5 ml of reaction mixture. […] 1,3-butadiene production was analyzed by GC/FID procedure. […]

Substrate in data set [4]: CC(=O)CC(=O)SCCNC(=O)CCNC(=O)[C@H](O)C(C)(C)COP(=O)(O)OP(=O)(O)OC[C@H]1O[C@@H](n2cnc3c(N)ncnc32)[C@H](O)[C@@H]1OP(=O)(O)O
Kind of data set: purified protein, by the assay type. Particulars: other: acetoacetyl-CoA variable (0-32 mM), NADPH 60 mM, pH 7.5, 37° C.

Substrate in data set [5]: C=CC(C)=O
Description: Enzyme-catalyzed reduction of 3-buten-2-one to 3-buten-2-ol, HPLC-based. Format: biochemical, Thermoanaerobium brockii. Conditions: other: 0-40 mM 3-buten-2-one, 40 mM NADPH, 0.1 mM ZnCl2, pH 7.5, 37° C. Here is the method:
as §2
1 mg/ml alcohol dehydrogenase from Th. brockii
as §3, §1

Substrate in data set [6]: C=CC(C)=O
Description: Kinetic parameters of the reduction of 3-buten-2-one to 3-buten-2-ol. The data set is classed as biochemical, Lactobacillus kefiri. Particulars: other: 0-40 mM 3-buten-2-one, 40 mM NADPH, pH 7.5, 37° C. How it is done:
as §1, §2
1 mg/ml alcohol dehydrogenase from L. kefiri.
as §3, §4

Sequence of 3-hydroxypropionyl-CoA dehydratase from Sulfolobus tokodaii, SEQ ID NO: 3 (Uniprot F9VNG3) (F9VNG3 1-257): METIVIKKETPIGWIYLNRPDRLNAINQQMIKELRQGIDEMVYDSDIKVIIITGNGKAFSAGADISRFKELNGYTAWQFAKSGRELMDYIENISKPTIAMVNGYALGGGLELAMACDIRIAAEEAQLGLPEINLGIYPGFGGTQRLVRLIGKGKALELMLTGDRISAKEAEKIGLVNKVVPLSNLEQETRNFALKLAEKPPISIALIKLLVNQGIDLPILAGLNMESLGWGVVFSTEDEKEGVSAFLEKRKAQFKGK
Sequence of linalool dehydratase-isomerase from Castellaniella defragrans (formerly Alcaligenes defragrans), SEQ ID NO: 19 (E1XUJ2 27-397): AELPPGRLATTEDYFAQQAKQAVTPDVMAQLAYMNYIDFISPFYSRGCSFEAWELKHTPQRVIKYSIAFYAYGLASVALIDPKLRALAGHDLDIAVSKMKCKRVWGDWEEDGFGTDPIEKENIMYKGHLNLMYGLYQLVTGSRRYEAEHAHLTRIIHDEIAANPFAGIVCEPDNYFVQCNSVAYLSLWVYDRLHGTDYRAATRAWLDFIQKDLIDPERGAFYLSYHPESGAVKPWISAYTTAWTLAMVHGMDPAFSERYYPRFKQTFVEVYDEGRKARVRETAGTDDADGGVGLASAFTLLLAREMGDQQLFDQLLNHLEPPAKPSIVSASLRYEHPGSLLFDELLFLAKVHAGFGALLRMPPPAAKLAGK

On to `C=CC(C)=O` [3-buten-2-one], for which the kcat entry in data set [1] is on record as “at least 0.03 s^−1”.
On to `CC(=O)CCO` [4-hydroxy-2-butanone], for which the kcat in data set [2] was found to be 0.0075 s⁻¹.
With `C=CC(C)O` (centres unmarked) [3-buten-2-ol], the turnover number entry in data set [3] is reported as “about 10^−4 s^−1 substrate molecule per enzyme active site”.

B1: Short chain alcohol dehydrogenase-like protein from Hahella chejuensis, SEQ ID NO: 11 (Uniprot Q2SCE0) (Hahella chejuensis KCTC 2396) (protein)
chain: MNYFVTGGTGFIGRFLVPKLLKRGGTVYLLVREASLPKLDELRERWNASDEQVVGVVGDLAQPMLGVSEKDAAMLRGKVGHFFHLAAIYDMQASAESQEQANIEGTRNAVKLADSLKAACFHHVSSIAAAGLYRGIFREDMFEEAEKLDNPYLRTKHESEKVVREECQTPWRVYRPGMVVGHSKTGEIDKIDGPYYFFKLIQKLRSALPQWMPTVGLEGGRINIVPVDFVVDAMDHIAHAEGEDGKCFHLTDPDPYKVGEILNIFAEAGHAPKMAMRIDARMFGFIPPMIRQGIARLPPVQRMKNAVLNDLGIPDEVMSFINYPTRFDNRETERLLKGTAIAVPRLQDYSPAIWDYWERHLDPDLHKDRTLRGAVEGRVCVITGATSGIGLSAARKLAEAGAKVVIAARTLEKLQEVKKELEELGGEVYEYSVDLSDLEDCDRFVANVLKDLGHVDVLVNNAGRSIRRSIQHAFDRFHDFERTMQLNYFGSLRLIMGFAPSMLERRRGHIVNISSIGVLTNAPRFSAYVASKAALDAFSRCAAAEFSDKNVTFTTINMPLVRTPMISPTKIYDSVPTLTPEEAADLVAEAIIHRPKRIATRLGVFAQVLHSMAPKFSEIIMNTGFKMFPDSSAATGGKDGEKPKVSTEQVAFAAIMRGIHW
Take B1: in data set [4], the Km is recorded as 5 mM and the kcat came to 0.07 s⁻¹.

B2: Alcohol dehydrogenase from Thermoanaerobacter brockii (Thermoanaerobium brockii), SEQ ID NO: 13 (Uniprot P14941) (Thermoanaerobacter brockii) (protein)
chain: MKGFAMLSIGKVGWIEKEKPAPGPFDAIVRPLAVAPCTSDIHTVFEGAIGERHNMILGHEAVGEVVEVGSEVKDFKPGDRVVVPAITPDWRTSEVQRGYHQHSGGMLAGWKFSNVKDGVFGEFFHVNDADMNLAHLPKEIPLEAAVMIPDMMTTGFHGAELADIELGATVAVLGIGPVGLMAVAGAKLRGAGRIIAVGSRPVCVDAAKYYGATDIVNYKDGPIESQIMNLTEGKGVDAAIIAGGNADIMATAVKIVKPGGTIANVNYFGEGEVLPVPRLEWGCGMAHKTIKGGLCPGGRLRMERLIDLVFYKRVDPSKLVTHVFRGFDNIEKAFMLMKDKPKDLIKPVVILA
As for B2, in data set [5], the Km is 100 mM and the kcat is 0.5 s⁻¹.

B3: Short-chain dehydrogenase/reductase (Fatty alcohol forming acyl-CoA reductase) from Marinobacter aquaeolei VT8, SEQ ID NO: 7 (Uniprot A1U3L3) (Marinobacter … (protein)
chain: MNYFLTGGTGFIGRFLVEKLLARGGTVYVLVREQSQDKLERLRERWGADDKQVKAVIGDLTSKNLGIDAKTLKSLKGNIDHVFHLAAVYDMGADEEAQAATNIEGTRAAVQAAEAMGAKHFHHVSSIAAAGLFKGIFREDMFEEAEKLDHPYLRTKHESEKVVREECKVPFRIYRPGMVIGHSETGEMDKVDGPYYFFKMIQKIRHALPQWVPTIGIEGGRLNIVPVDFVVDALDHIAHLEGEDGNCFHLVDSDPYKVGEILNIFCEAGHAPRMGMRIDSRMFGFIPPFIRQSIKNLPPVKRITGALLDDMGIPPSVMSFINYPTRFDTRELERVLKGTDIEVPRLPSYAPVIWDYWERNLDPDLFKDRTLKGTVEGKVCVVTGATSGIGLATAEKLAEAGAILVIGARTKETLDEVAASLEAKGGNVHAYQCDFSDMDDCDRFVKTVLDNHGHVDVLVNNAGRSIRRSLALSFDRFHDFERTMQLNYFGSVRLIMGFAPAMLERRRGHVVNISSIGVLTNAPRFSAYVSSKSALDAFSRCAAAEWSDRNVTFTTINMPLVKTPMIAPTKIYDSVPTLTPDEAAQMVADAIVYRPKRIATRLGVFAQVLHALAPKMGEIIMNTGYRMFPDSPAAAGSKSGEKPKVSTEQVAFAAIMRGIYW
Take B3: in data set [4], the Km was found to be 8 mM and the catalytic constant (kcat) came to 0.1 s⁻¹.

B4: R-specific alcohol dehydrogenase from Lactobacillus kefiri, SEQ ID NO: 17 (Uniprot Q6WVP7) (Lentilactobacillus kefiri) (protein)
chain: MTDRLKGKVAIVTGGTLGIGLAIADKFVEEGAKVVITGRHADVGEKAAKSIGGTDVIRFVQHDASDEAGWTKLFDTTEEAFGPVTTVVNNAGIAVSKSVEDTTTEEWRKLLSVNLDGVFFGTRLGIQRMKNKGLGASIINMSSIEGFVGDPTLGAYNASKGAVRIMSKSAALDCALKDYDVRVNTVHPGYIKTPLVDDLEGAEEMMSQRTKTPMGHIGEPNDIAWICVYLASDESKFATGAEFVVDGGYTAQ
As for B4, in data set [6], the Km was 19 mM and the turnover number (kcat) worked out at 4 s⁻¹.
